The target of assay [1] is T1, human HHLA2 expressed on transfected cells (300.19 mouse pre-B cells; CHO cells) (human, UniProt Q9UM44 23-414).
T1 construct: also called B7-H7; B7H7
T1 sequence: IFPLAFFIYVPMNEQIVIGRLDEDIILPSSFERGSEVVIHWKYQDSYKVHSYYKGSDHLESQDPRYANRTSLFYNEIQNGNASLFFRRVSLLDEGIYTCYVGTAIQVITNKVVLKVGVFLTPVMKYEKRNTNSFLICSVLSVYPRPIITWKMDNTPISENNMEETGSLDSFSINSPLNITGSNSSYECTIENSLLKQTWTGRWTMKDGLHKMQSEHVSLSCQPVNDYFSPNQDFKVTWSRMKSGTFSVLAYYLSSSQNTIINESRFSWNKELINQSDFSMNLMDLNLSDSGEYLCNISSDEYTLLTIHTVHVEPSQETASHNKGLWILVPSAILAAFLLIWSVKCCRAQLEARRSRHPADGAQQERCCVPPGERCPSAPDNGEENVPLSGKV
Put plainly: flow cytometry, mAb on HHLA2-transfected 300.19 mouse pre-B cells.

Assay [2] concerns the target T1, human HHLA2 expressed on transfected …. The experiment in a line: flow cytometry, mAb titrated on HHLA2-transfected 300.19 pre-B cells, PE goat anti-mouse IgG. The method, then:
(§1) HHLA2 mAb cell binding and receptor blockade experiments were then performed. […] HHLA2 mAb binding to transfected 300.19 cells was detected with PE-labeled goat anti-mouse IgG (H+L). For HHLA2 mAb blocking experiments different concentration of HHLA2 mAbs were pre-incubated with 4 ug/ml of HHLA2-mIgG2a at a 1:1 ratio for 30 minutes and added to either TMIGD2 or KIR3DL3 transfected 293T cells and incubated for 30 minutes at 4° C. HHLA2-mIgG2a binding to TMIGD2 or KIR3DL3 transfected 293T cells was detected with a PE labeled Fab2 goat anti-mIgG2a antibody. EC50 and IC50 analyses were conducted using Graph Pad Prism. It was shown that HHLA2 mAb clone 2C4 has desired properties of complete KIR3DL3 blockade and partial TMIGD2 blockade (Table 6).
(A flow cytometer gives signals particle by particle.)

Assay [3] has as its target T2, human HHLA2-mIgG2a fusion protein (human; mouse, UniProt Q9UM44 23-344, limits assumed).
T2 construct: also called hHHLA2-mIgG2a; HHLA2-Fc
T2 sequence: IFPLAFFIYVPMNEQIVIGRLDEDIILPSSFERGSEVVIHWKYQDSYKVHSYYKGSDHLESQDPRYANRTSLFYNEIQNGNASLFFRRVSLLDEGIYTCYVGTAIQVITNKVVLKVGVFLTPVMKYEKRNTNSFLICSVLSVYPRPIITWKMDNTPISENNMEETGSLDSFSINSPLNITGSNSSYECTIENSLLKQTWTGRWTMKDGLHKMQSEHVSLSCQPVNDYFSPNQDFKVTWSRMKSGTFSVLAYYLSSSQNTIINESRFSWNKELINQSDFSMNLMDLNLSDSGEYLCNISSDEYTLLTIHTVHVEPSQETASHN
Put plainly: flow cytometry, mAb pre-incubated with 4 ug/ml HHLA2-mIgG2a; blockade of its binding to TMIGD2-transfected 293T cells. The method, then:
as §1

For assay [4], the target named is T2, human HHLA2-mIgG2a fusion protein. Put plainly: flow cytometry, mAb pre-incubated with 4 ug/ml HHLA2-mIgG2a; blockade of its binding to KIR3DL3-transfected 293T cells. How it is done:
as §1

The target is the same in assay [5]. The experiment in a line: cell microarray, HHLA2-mIgG2a on fixed transfected HEK293 cells, AF647 anti-mouse IgG detection. The method, then: Human HHLA2-mIgG2a fusion protein was added to slides of fixed, transfected HEK293 cell slides at a 20 ug/ml concentration, and the protein was detected with an AF647 labeled anti-mouse IgG detection antibody. Two replicate slides were screened for each of the 13 slide sets. Fluorescent images were analyzed and quantitated (for transfection efficiency) using ImageQuant software (GE). A protein ‘hit’ was defined as duplicate spots showing a raised signal compared to background levels. This was achieved by visual inspection using the images gridded on the ImageQuant software.
Addition of the AF647 labeled anti-mouse IgG detection antibody alone in the absence of HHLA2-mIgG2a produced no signal. The selectivity of HHLA2 binding to KIR3DL3 was evaluated using a panel of 14 KIR receptors arrayed on slides.

B1: anti-HHLA2 monoclonal antibody 6D10 (antibody, IgG1, V domains shown)
VH: EVQLVETGGGLVQPKGSLKLSCAASGFTFNTNVMNWVRQAPGKGLEWVARIRTKTNNYATYYADSVKDRFTIFRDDSQSILYLQMNNLKTEDTAMYYCVGAMDYWGQGTSVTVSS
VL: DIVLTQSPASLAVSLGQRATISCRASESVDNYGISFMHWYQQKPGQPPKLLIYRASNLKSGIPARFSGSGSRTDFTLTINPVETGDVATYYCQQSSKDPPTFGTGTKLELK
notes: also called 6DI0; 499.5.6D10.11.11.7
For the molecule B1, the EC50 in assay [1] and in assay [2] was 22.5 µg/mL throughout. Besides, the IC50 in assay [3] turned out to be 11.7 µg/mL; in assay [4], 7 µg/mL.

B2: anti-HHLA2 monoclonal antibody 4D1 (antibody, IgG1, V domains shown)
VH: QVQLQQSGAELVRPGVSVKISCKGSGYTFTDYAMHWVKQSHAKSLEWIGSISTYYGDTNYNQKFKGKATMTVDKSSSTAYMELARLTSEDSAIYYCARGNYDDWYFNVWGAGTTVTVSS
VL: DIQMTQSPSSLSASLGERVSLTCRASQDISGYLSWLQQKPDGTIKRLIYSTSTLDSGVPKRFSGSRSGSDYSLTISSLESEDFADYYCLQYASSPYTFGGGAKLEIK
notes: also called 499.5.4D1.5.16; MHC2563
As to B2, the EC50 in assay [1] and in assay [2] was 0.44 µg/mL throughout. Further, the 50% inhibitory concentration (IC50) was found to be 0.56 µg/mL in assay [3] and 0.68 µg/mL in assay [4].

B3: KIR2DS5 (receptor, human, UniProt Q14953 22-304, looked up)
chain: HEGFRRKPSLLAHPGPLVKSEETVILQCWSDVMFEHFLLHREGTFNHTLRLIGEHIDGVSKGNFSIGRMTQDLAGTYRCYGSVTHSPYQLSAPSDPLDIVITGLYEKPSLSAQPGPTVLAGESVTLSCSSRSSYDMYHLSREGEAHERRLPAGPKVNRTFQADFPLDPATHGGTYRCFGSFRDSPYEWSKSSDPLLVSVTGNSSNSWPSPTEPSSETGNPRHLHVLIGTSVVKLPFTILLFFLLHRWCSNKKNASVMDQGPAGNRTVNREDSDEQDHQEVSYA
notes: whole, on cells
In the case of B3, the binding result in assay [5] was “no binding (tested: 20 ug/ml)”.

B4: KIR2DS1 (receptor, human, UniProt Q14954 22-304, looked up)
chain: HEGVHRKPSLLAHPGRLVKSEETVILQCWSDVMFEHFLLHREGMFNDTLRLIGEHHDGVSKANFSISRMKQDLAGTYRCYGSVTHSPYQLSAPSDPLDIVIIGLYEKPSLSAQPGPTVLAGENVTLSCSSRSSYDMYHLSREGEAHERRLPAGTKVNGTFQANFPLGPATHGGTYRCFGSFRDSPYEWSKSSDPLLVSVTGNPSNSWPSPTEPSSETGNPRHLHVLIGTSVVKIPFTILLFFLLHRWCSDKKNAAVMDQEPAGNRTVNSEDSDEQDHQEVSYA
notes: whole, on cells
For the molecule B4, in assay [5], the binding result is “no binding (tested: 20 ug/ml)”.

B5: KIR2DS3 (receptor, human, UniProt Q14952 22-304, looked up)
chain: HEGFRRKPSLLAHPGRLVKSEETVILQCWSDVMFEHFLLHREGTFNDTLRLIGEHIDGVSKANFSIGRMRQDLAGTYRCYGSVPHSPYQFSAPSDPLDIVITGLYEKPSLSAQPGPTVLAGESVTLSCSSWSSYDMYHLSTEGEAHERRFSAGPKVNGTFQADFPLGPATQGGTYRCFGSFHDSPYEWSKSSDPLLVSVTGNPSNSWPSPTEPSSKTGNPRHLHVLIGTSVVKLPFTILLFFLLHRWCSDKKNASVMDQGPAGNRTVNREDSDEQDHQEVSYA
notes: whole, on cells
Consider B5, for which the binding result in assay [5] was “no binding (tested: 20 ug/ml)”.

B6: anti-HHLA2 monoclonal antibody 2G2 (antibody, IgG1, V domains shown)
VH: EVMLVESGGGLVKPGGSLKLSCAVSGLTFSSYAMSWVRQTPEKRLEWVATISSGGSHTYYPDSVKGRFIISRDNAKNTLYLQMNSLRSEDTAMYYCTRLGRAFDYWGQGTTLTVSS
VL: DIVMTQSHKFMSTSVGDRVSITCKASQDVSTAVAWYQQKPGQSPKVLIYWASTRHTGVPDRFTGSGSGTDFTLTISSVQAEDLALYYCQQDYSTPWTFGGGTKLEIK
notes: also called 499.5.2G2.13.3.10; MHC2561
For B6, the half-maximal effective concentration (EC50) in assay [1] and in assay [2] was 0.21 µg/mL in each case. Also, the concentration for half-maximal inhibition (IC50) in assay [3] amounted to 0.85 µg/mL; in assay [4] it was 0.53 µg/mL.

B7: KIR2DS2 (receptor, human, UniProt P43631 22-304, looked up)
chain: HEGVHRKPSLLAHPGPLVKSEETVILQCWSDVRFEHFLLHREGKYKDTLHLIGEHHDGVSKANFSIGPMMQDLAGTYRCYGSVTHSPYQLSAPSDPLDIVITGLYEKPSLSAQPGPTVLAGESVTLSCSSRSSYDMYHLSREGEAHERRFSAGPKVNGTFQADFPLGPATHGGTYRCFGSFRDSPYEWSNSSDPLLVSVTGNPSNSWPSPTEPSSKTGNPRHLHVLIGTSVVKIPFTILLFFLLHRWCSNKKNAAVMDQEPAGNRTVNSEDSDEQDHQEVSYA
notes: whole, on cells
In the case of B7, in assay [5], the binding result is given as “no binding (tested: 20 ug/ml)”.

B8: KIR2DL3 (receptor, human, UniProt P43628 22-341, looked up)
chain: HEGVHRKPSLLAHPGPLVKSEETVILQCWSDVRFQHFLLHREGKFKDTLHLIGEHHDGVSKANFSIGPMMQDLAGTYRCYGSVTHSPYQLSAPSDPLDIVITGLYEKPSLSAQPGPTVLAGESVTLSCSSRSSYDMYHLSREGEAHERRFSAGPKVNGTFQADFPLGPATHGGTYRCFGSFRDSPYEWSNSSDPLLVSVTGNPSNSWPSPTEPSSETGNPRHLHVLIGTSVVIILFILLLFFLLHRWCCNKKNAVVMDQEPAGNRTVNREDSDEQDPQEVTYAQLNHCVFTQRKITRPSQRPKTPPTDIIVYTELPNAEP
notes: whole, on cells
On to B8, for which, in assay [5], the binding result was “no binding (tested: 20 ug/ml)”.

B9: anti-HHLA2 monoclonal antibody 1C8 (antibody, IgG2a, V domains shown)
VH: EVQLQQSGAELVQPGASVKLSCTASGFNIKDTYMHWVKQRPEQGLEWIGRIDPANGKTIFDPKFQVKATITADTSSNTVYLHLSSLTSEDTAIYYCAWLLPYYFDYWGQGTTLTVSS
VL: EIVLTQSPAVMAASPGEKVTITCSVSSSISSSNLHWYQQKSGTSPKLWIYGTSNLASGVPVRFSGSGSGTSYSLTISSMEAEDAATYYCQKWSHYPLTFGAGTKLELK
notes: also called 499.5.1C8.9.12.2; MHC2564
For the molecule B9, the EC50 in assay [1] and in assay [2] was 0.63 µg/mL throughout. Further, the values for the 50% inhibitory concentration (IC50) in assay [3] and in assay [4] were 1.65 µg/mL and 1.15 µg/mL, respectively.

As usually defined, the EC50 is the concentration at which the effect is half-maximal. Read a low EC50 as an effect from little substance. One may read the IC50 as the concentration needed to halve the response being measured. High values mean weaker potency, low ones greater potency.
